Here are results for 94 variants from the supplement of paper PMC10567573.

The chains are these.
B1: DYRK1B (parent)
chain: YQGPGTRRLQEVLGVQTGGPGGRR
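Also: lentivirally expressed fusions sorted by FACS into six bins by GFP to DsRed ratio, PSI derived from sequencing read proportions per bin multiplied by bin number.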

The variants in this data set derive from B1. The data set can be described thus: protein stability index of a GFP-peptide fusion (GPS, HEK-293T) (PSI 1-6); higher = more stable. The conditions noted are these: c terminus: a fixed tail appended.
For the variant YQGPGTRRLQEVLGVQTGGPCGRR, the protein stability index was determined as 2.72.
The same measure for YQGPGTRRLQEVLGVQTGGPMGRR: 3.48; for YQGPGTRRLQEVLGVQTGGPKGRR: 2.74; for YQGPGTRRLQEVLGVQTGGPDGRR: 3.88.
The value for YQGPGTRRLQEVLGVQTGGPNGRR was 3.04; that for YQGPGTRRLQEVLGVQTGGPLGRR was 3.18; that for YQGPGTRRLQEVLGVQTGGPQGRR was 3.4.
For the variant YQGPGTRRLQEVLGNQTGGPGGRR, the protein stability index came out at 3.81.
The value for YQGPGTRRLQEVLGLQTGGPGGRR was 2.68; that for YQGPGTRRLQEVLGSQTGGPGGRR was 3.59; that for YQGPGTRRLQEVLGQQTGGPGGRR was 4.
The same measure for YQGPGTRRLQEVLGKQTGGPGGRR: 3.01.
The value for YQGPGTRRLQEVLGIQTGGPGGRR was 2.07; that for YQGPGTRRLQEVLGEQTGGPGGRR was 3.44; that for YQGPGTRRLQEVLGTQTGGPGGRR was 2.96.
On to YQGPGTRRLQEVLGGQTGGPGGRR, for which the protein stability index worked out at 3.63.
Turning to YQGPGTRRLQEVLGRQTGGPGGRR, the protein stability index was found to be 3.34.
The same measure for YQGPGTRRLQEVLGWQTGGPGGRR: 3.1; for YQGPGTRRLQEVLGDQTGGPGGRR: 3.23; for YQGLGTRRLQEVLGVQTGGPGGRR: 2.39.
The value for YQGTGTRRLQEVLGVQTGGPGGRR was 2.79.
The same measure for YQGSGTRRLQEVLGVQTGGPGGRR: 2.32.
In the case of YQGDGTRRLQEVLGVQTGGPGGRR, the protein stability index turned out to be 2.81.
The value for YQGHGTRRLQEVLGVQTGGPGGRR was 2.79; that for YQGEGTRRLQEVLGVQTGGPGGRR was 3.3.
In the case of YQGPRTRRLQEVLGVQTGGPGGRR, the protein stability index was found to be 2.58.
The same measure for YQGPWTRRLQEVLGVQTGGPGGRR: 1.08; for YQGPVTRRLQEVLGVQTGGPGGRR: 3.4; for YQGPITRRLQEVLGVQTGGPGGRR: 2.76.
The same measure for YQGPPTRRLQEVLGVQTGGPGGRR: 2.8; for YQGPNTRRLQEVLGVQTGGPGGRR: 4.4.
For YQGPGTRRLQEVLGVQTGGPGKRR, the protein stability index came out at 2.51.
The same measure for YQGPGTRRLQEVLGVQTGGPGIRR: 3.75.
Turning to YQGPGTRRLQEVLGVQTGGPGYRR, the protein stability index is 2.63.
On to YQGPGTRRLQEVLGVQTGGPGCRR, for which the protein stability index worked out at 2.87.
The value for YQGPGTRRLQEVLGVQTGGPGHRR was 3.29.
The value for YQGPGTRRLQEVLGVQTGGPGVRR was 2.95; that for YQGPGTRRLQEVLGVQTGGPGMRR was 2.67; that for YQGPGTRRLQEVLGVQTGGPGTRR was 3.35.
For the variant YQGPGTRRLQEVLGVQTGGPGFRR, the protein stability index was determined as 2.17.
With YQGPGTRRLQETLGVQTGGPGGRR, the protein stability index amounted to 3.75.
The value for YQGPGTRRLQEKLGVQTGGPGGRR was 2.33; that for YQGPGTRRLQERLGVQTGGPGGRR was 2.91.
As to YQGPGTRRLQEMLGVQTGGPGGRR, the protein stability index stood at 2.59.
The value for YQGPGTRRLQEELGVQTGGPGGRR was 3.66; that for YQGPGTRRLQENLGVQTGGPGGRR was 3.81; that for YQGPGTRRLQEVLQVQTGGPGGRR was 3.72.
The value for YQGPGTRRLQEVLLVQTGGPGGRR was 2.75; that for YQGPGTRRLQEVLKVQTGGPGGRR was 2.9; that for YQGPGTRRLQEVLFVQTGGPGGRR was 2.66.
The value for YQGPGTRRLQEVLCVQTGGPGGRR was 1.55; that for YQGPGTRRLQEVLHVQTGGPGGRR was 3.62.
YQGPGTRRLQEVLAVQTGGPGGRR: the protein stability index was 2.92.
Turning to YQGPGTRRLQEVLGVQTHGPGGRR, the protein stability index stood at 3.19.
The value for YQGPGTRRLQEVLGVQTTGPGGRR was 3.51.
The value for YQGPGTRRLQEVLGVQTCGPGGRR was 3.07; that for YQGPGTRRLQEVLGVQTFGPGGRR was 3.23; that for YQGPGTRRLQEVLGVQTDGPGGRR was 4.02.
The same measure for YQGPGTRRLQEVLGVQTNGPGGRR: 3.34; for YQGPGTRRLQEVLGVQTKGPGGRR: 2.6.
In the case of YQGPGTRRLQEVLGVQTLGPGGRR, the protein stability index was found to be 2.74.
The value for YQGPGTRRLQEVLGVQTGGPGGDR was 3.8.
The value for YQGPGTRRLQEVLGVQTGGPGGPR was 3.26.
With YQGPGTRRLQEVLGVQTGGPGGQR, the protein stability index was determined as 3.38.
The same measure for YQGPGTRRLQEVLGVQTGGPGGER: 3.32.
The same measure for YQGPGTRRLQEVLGVQTGGPGGCR: 2.87; for YQGPGTRRLQEVLGVQTGGPGGFR: 2.37.
Regarding YQGPGTRRLQHVLGVQTGGPGGRR, the protein stability index came out at 2.43.
The value for YQGPGTRRLQQVLGVQTGGPGGRR was 2.68.
The same measure for YQGPGTRRLQTVLGVQTGGPGGRR: 3.31; for YQGPGTRRLQVVLGVQTGGPGGRR: 2.56; for YQGPGTRRLQCVLGVQTGGPGGRR: 2.44.
The value for YQGPGTRRLQDVLGVQTGGPGGRR was 3.39; that for YQGPGTRRLQLVLGVQTGGPGGRR was 2.28; that for YQGPGIRRLQEVLGVQTGGPGGRR was 2.87.
Consider YQGPGSRRLQEVLGVQTGGPGGRR, for which the protein stability index is 2.54.
The value for YQGPGGRRLQEVLGVQTGGPGGRR was 3.32; that for YQGPGFRRLQEVLGVQTGGPGGRR was 2.88; that for YQGPGVRRLQEVLGVQTGGPGGRR was 3.02.
The same measure for YQGPGARRLQEVLGVQTGGPGGRR: 2.71; for YQGPGWRRLQEVLGVQTGGPGGRR: 2.17.
The value for YQGPGNRRLQEVLGVQTGGPGGRR was 2.68; that for YQGPGTRRLQEVLGVQTGGNGGRR was 3.1; that for YQGPGTRRLQEVLGVQTGGWGGRR was 2.02.
With YQGPGTRRLQEVLGVQTGGDGGRR, the protein stability index worked out at 3.51.
The same measure for YQGPGTRRLQEVLGVQTGGGGGRR: 3.15; for YQGPGTRRLQEVLGVQTGGQGGRR: 3.16.
The same measure for YQGPGTRRLQEVLGVQTGGVGGRR: 2.76.
The value for YQGPGTRRLQEVLGVQTGGYGGRR was 2.77; that for YQGPGTRRLQEVLGVQTGGFGGRR was 2.32.
On to YQGPGTRRLQEVLGVQTGGIGGRR, for which the protein stability index was found to be 2.84.
Take YQGPGTRRLQEVLGVQTGGKGGRR: the protein stability index amounted to 3.83.
The same measure for YQGPGTRRLQEVLGVQTGGSGGRR: 3.28; for YQGPGTRRLQEVLGVQTGGHGGRR: 2.81.
